Columns and labels:
Conditions in all cases: both partners purified
[1] = target: T1, PFV-Gag-NtD (amino terminal domain of Prototypic Foamy Virus Gag, residues 1-179) (Prototypic foamy virus (PFV), UniProt P14349 1-179); test: ITC; ITC-200; 1 mM Env peptide in the syringe injected into 50 µM PFV-Gag-NtD in the cell; 25 mM Na-phosphate pH 6.55, 100 mM NaCl, 0.5 mM TCEP
T1 construct: source: E. coli Rosetta 2 (DE3), purified (Ni-NTA, Superdex 200 SEC); not shown: His-tag, N-terminal, kept
T1 sequence: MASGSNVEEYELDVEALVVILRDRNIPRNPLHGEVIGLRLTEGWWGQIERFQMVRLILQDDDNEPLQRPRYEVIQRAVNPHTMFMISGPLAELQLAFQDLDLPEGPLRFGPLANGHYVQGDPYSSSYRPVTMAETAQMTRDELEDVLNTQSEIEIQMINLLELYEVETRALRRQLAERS

PFV-Gag-NtD L17S = target: T2, PFV-Gag-NtD L17S (Prototypic foamy virus (PFV), UniProt P14349 1-179, L17S); test: AUC; sedimentation velocity of 75 µM equimolar mixtures of Gag-NtD and Env peptide, absorbance at 280 nm; bound fraction from the integrated absorbance of the 3S species in C(S)
T2 construct: Gag of Prototypic Foamy Virus, residues 1-179 (Gag-NtD) with L17S
T2 sequence (looked up): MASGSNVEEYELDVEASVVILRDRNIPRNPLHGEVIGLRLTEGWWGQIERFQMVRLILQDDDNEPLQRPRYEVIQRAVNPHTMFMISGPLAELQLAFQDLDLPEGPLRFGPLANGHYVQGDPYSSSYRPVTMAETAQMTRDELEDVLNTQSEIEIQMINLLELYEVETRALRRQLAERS

PFV-Gag-NtD V14S/L21S = target: T3, PFV-Gag-NtD V14S/L21S (Prototypic foamy virus (PFV), UniProt P14349 1-179, V14S | L21S); test: as above
T3 construct: Gag of Prototypic Foamy Virus, residues 1-179 (Gag-NtD) with V14S and L21S; also called Val14/Leu21 to serine
T3 sequence (looked up): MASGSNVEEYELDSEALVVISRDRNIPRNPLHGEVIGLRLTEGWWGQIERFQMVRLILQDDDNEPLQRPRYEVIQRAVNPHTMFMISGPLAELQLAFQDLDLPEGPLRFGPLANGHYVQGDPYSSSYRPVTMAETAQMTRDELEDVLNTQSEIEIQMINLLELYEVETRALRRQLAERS

B1: PFV Env leader peptide residues 1-20 (peptide, UniProt P14351 1-20, looked up)
peptide: MAPPMTLQQWIIWKKMNKAH
notes: Envelope (Env) protein of Prototypic Foamy Virus, N-terminal leader peptide region, residues 1-20 (Met1 to His20); the text names M1, A2, P3, P4, M5, T6, L7, Q9, W10, W13, M16, A19, H20; also called Env_(1-20); Env(1-20); source: synthetic peptide, bought HPLC purified: Pepceuticals Ltd
Ka [1]: 150000 M⁻¹
stoichiometry N [1]: 1
fold decrease of affinity against wt PFV-Gag-NtD (PFV-Gag-NtD L17S): 2 fold
fold reduction in binding against wt PFV-Gag-NtD (PFV-Gag-NtD V14S/L21S): ~20 fold

Source: publication PMC3649970, “A Unique Spumavirus Gag N-terminal Domain with Functional Properties of Orthoretroviral Matrix and Capsid” (PLoS Pathogens, 2013)
